Data: the supplement of paper PMC10567573

B1: INTS4 (parent)
chain: YSSGEFSSGRKWGDDAPKEEVDTG
B2: CAMK2A (parent)
chain: CIQQILEAVLHCHQMGVVHRDLKP

Variants of: B1
Assay: protein stability index of a GFP-peptide fusion (GPS, HEK-293T) (PSI 1-6); higher = more stable
Settings: c terminus: a fixed tail appended
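Note: lentivirally expressed fusions sorted by FACS into six bins by GFP to DsRed ratio, PSI derived from sequencing read proportions per bin multiplied by bin number.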

Row | Variant | protein stability index
1 | F6N | 5.22
2 | F6M | 4.69
3 | F6A | 4.88
4 | F6H | 4.96
5 | K11Y | 3.31
6 | K11Q | 2.83
7 | K11I | 1.78
8 | K11C | 1.93
9 | K11N | 3.21
10 | K11P | 2.08
11 | V21S | 2.54
12 | V21D | 2.92
13 | K18D | 3.16
14 | K18T | 2.56
15 | K18W | 2.88
16 | K18L | 2.49
17 | K18N | 2.96
18 | K18A | 3.05
19 | K18E | 3.84
20 | E5M | 2.68
21 | E5G | 2.78
22 | E5D | 3.64

Row | Variant | protein stability index
23 | E5Y | 1.04
24 | E5H | 2.16
25 | S3H | 4.43
26 | S3T | 3.83
27 | G24H | 2.51
28 | G24A | 2.59
29 | G24V | 2.72
30 | G24I | 2.25
31 | G24K | 3.9
32 | G24E | 2.74
33 | Y1L | 5.79
34 | Y1V | 5.8
35 | Y1Q | 5.66
36 | Y1K | 5.62
37 | Y1R | 5.71
38 | Y1H | 5.51
39 | Y1I | 5.55
40 | Y1P | 5.42
41 | A16Q | 2.71
42 | A16F | 2.3
43 | A16Y | 2.56
44 | A16P | 2.32

Row | Variant | protein stability index
45 | A16S | 2.63
46 | A16G | 2.16
47 | A16K | 2.19
48 | W12Q | 3.17
49 | W12A | 3.22
50 | W12I | 3.2
51 | W12H | 3.29
52 | W12S | 4.44
53 | W12C | 2.7
54 | W12M | 2.85
55 | D14I | 1.54
56 | D14Y | 2.48
57 | D14P | 2.04
58 | D14V | 2.01
59 | D14R | 2.02
60 | T23E | 2.8
61 | T23M | 1.99
62 | T23W | 2.05
63 | T23P | 1.9
64 | T23S | 2.67
65 | T23N | 2.35
66 | D22G | 2.35

Row | Variant | protein stability index
67 | D22W | 1.64
68 | D22S | 2.17
69 | D22C | 2.67
70 | D22K | 1.65
71 | D22M | 1.63
72 | D22N | 2.74
73 | G9S | 2.63
74 | G9F | 2.48
75 | G9K | 1.28
76 | G9T | 2.3
77 | G9A | 1.91
78 | G9D | 3.6
79 | P17Q | 2.35
80 | P17V | 2.74
81 | S2V | 1.59
82 | S2W | 3.81
83 | S2I | 2.42
84 | S2P | 2.31
85 | S2Q | 2.48
86 | S2L | 3.48
87 | S2K | 5.2
88 | S2E | 5.4

Row | Variant | protein stability index
89 | R10A | 2.35
90 | R10H | 2.85
91 | R10Q | 1.98
92 | E20G | 2.17
93 | E20V | 2.37
94 | E20C | 2.5
95 | E20T | 2.38
96 | E20N | 2.35
97 | E20M | 2.31
98 | E20D | 2.49
99 | E20I | 2.43
100 | D15V | 1.78
101 | D15W | 1.69
102 | D15Y | 2.01
103 | G4E | 4.08
104 | G4S | 4.02
105 | G4L | 3.33
106 | G4T | 3.61
107 | G4H | 4.42
108 | G4K | 3.31
109 | G4I | 4.11
110 | G13V | 2.47

Row | Variant | protein stability index
111 | G13I | 2.48
112 | G13A | 2.65
113 | G13T | 2.5
114 | G13D | 2.5
115 | S8Q | 1.89
116 | S8M | 1.6
117 | S8C | 1.97
118 | S8I | 1.94
119 | S8T | 2.48
120 | S8H | 2.25
121 | E19M | 2.93
122 | E19N | 2.52
123 | E19T | 2.72
124 | E19A | 2.67
125 | E19L | 1.94
126 | E19Y | 1.74
127 | E19P | 2.3
128 | E19S | 2.26
129 | S7N | 3.3
130 | S7I | 1.96
131 | S7Q | 2.69

Variants of: B2
Assay: as above
Settings: c terminus: a fixed tail appended

Row | Variant | protein stability index
132 | Q4T | 2.74
133 | Q4M | 1.92
134 | Q4A | 1.96
135 | Q4P | 1.69
136 | Q4D | 2.04
137 | Q4N | 2.68
138 | Q4R | 2.94
139 | Q4H | 2.13
140 | V17A | 1.8
141 | V17Q | 2.79
142 | V17F | 1.59
143 | V17L | 2.42
144 | V17T | 3.89
145 | V17G | 3.75
146 | V17D | 2.57
147 | V17I | 1.95
148 | V17N | 3.21
149 | V17H | 1.99

Row | Variant | protein stability index
150 | V18N | 2.84
151 | V18Y | 2.35
152 | V18I | 2
153 | V18R | 1.68
154 | V18T | 2.33
155 | V18E | 1.63
156 | V18P | 2.35
157 | V18A | 2.83
158 | V18C | 2.28
159 | V18H | 3.82
160 | V18S | 1.92
161 | V18Q | 3.46
162 | V18F | 1.78
163 | A8Y | 2.54
164 | A8D | 2.04
165 | A8T | 3.67
166 | A8V | 2.26
167 | A8P | 2.9
